Experimental data taken from patent US8791061B2, “Peptides for treating and preventing immune-related disorders, including treating and preventing infection by modulating innate immunity” (Soligenix, Inc., priority 2005, dated 2014).
“Also recorded” adds a separate entry of the source. Where no end group is shown, it is not given here. [ ]: non-standard residue; d: D form. Orn = NCCC[C@H](N)C(=O)O

target: T1, DPPIV (Mus musculus, UniProt P28843); assay: Plasma DPPIV activity assay with mouse blood; type: biochemical; settings: peptide 0.82 mM in mouse blood, 2 h at 37° C.; relative to saline control set to 100%
T1 construct: The plasma was transferred to a 96-well assay plate for the DPPIV assay; from tissue; host or cells: pooled heparinized whole blood of ICR mice; plasma isolated after incubation
T1 sequence (P28843 37-760 limits assumed): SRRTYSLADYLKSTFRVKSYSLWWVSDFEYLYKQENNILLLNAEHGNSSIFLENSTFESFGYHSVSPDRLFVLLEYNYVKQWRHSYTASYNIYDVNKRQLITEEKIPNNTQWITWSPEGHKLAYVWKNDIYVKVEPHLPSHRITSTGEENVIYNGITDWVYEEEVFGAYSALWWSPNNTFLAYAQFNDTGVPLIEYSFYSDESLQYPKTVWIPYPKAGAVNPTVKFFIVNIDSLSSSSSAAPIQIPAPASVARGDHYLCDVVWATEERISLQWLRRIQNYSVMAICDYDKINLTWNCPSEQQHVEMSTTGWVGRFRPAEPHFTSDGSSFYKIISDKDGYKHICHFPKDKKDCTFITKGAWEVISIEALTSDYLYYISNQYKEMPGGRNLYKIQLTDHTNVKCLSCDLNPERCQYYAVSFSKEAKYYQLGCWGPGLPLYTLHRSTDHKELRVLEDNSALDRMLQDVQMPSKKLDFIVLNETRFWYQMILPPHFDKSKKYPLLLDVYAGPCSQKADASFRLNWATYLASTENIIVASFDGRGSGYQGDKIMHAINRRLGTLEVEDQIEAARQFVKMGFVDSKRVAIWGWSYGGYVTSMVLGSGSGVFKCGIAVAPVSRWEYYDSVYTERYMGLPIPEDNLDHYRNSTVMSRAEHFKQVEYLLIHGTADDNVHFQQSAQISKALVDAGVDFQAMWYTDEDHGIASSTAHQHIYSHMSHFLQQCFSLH
Protocol: Mouse blood was obtained by cardiac puncture from ICR mice and collected in heparinized blood collection tubes. Blood from several mice was pooled and aliquoted into […]. The peptide was dissolved in acetate buffered saline, pH 5.5, to a concentration of 9 mM. Of this stock solution 30 μL were added to 300 μL of blood and mixed by resuspension (concentration in blood 0.82 mM). For the control, 30 μL of blank acetate buffered saline was added to 300 μL of blood. Each peptide group was prepared in triplicate, whereas the control was prepared in six replicates. The samples were incubated at 37° C. in closed microtubes for two hours. After incubation the plasma was isolated from the samples by centrifugation at 4000 rcf. The plasma was transferred to a 96-well assay plate for the DPPIV assay. The assay was started by adding 5 μL of the DPPIV substrate gly-pro-p-nitroanilide (16 mM in de-ionized water) to 95 μl of plasma (concentration in plasma 0.8 mM) and the increase in UV absorbance (405 nm) was monitored over a 20 min time period. The rate of the production of p-nitroaniline by enzymatic cleavage of gly-pro-p-nitroanilide was taken as the activity of DPPIV (Durinx C et al., (2001) “Reference values for plasma dipeptidyl-peptidase IV activity and their association with other laboratory parameters”. Clin Chem Lab Med. 39(2):155-9.)
The effect of the peptides on the activity of DPPIV was observed. Results are presented as normalized, averaged % activity relative to saline control (set to 100%). Anything less than 100% activity represents a reduction in DPPIV activity.
In one aspect of the invention, a reduction by of DPPIV activity by about, or in one embodiment, at least, 25% (i.e. to about 75%+/−5%) was deemed to be active. A person skilled in the art would appreciate that the desired level of activity may vary depending on the use of the peptides.

Row | Substance | % DPPIV Activity (Saline)
1 | 80 (KVIPS-NH2) [compound 80] | 30%
2 | 90 (RIVPA[dY]-NH2) [compound 90] | 59%
3 | 64 (RIVPPA-NH2) [compound 64] | 74%
4 | 12 (RRIVPA; IMMUNOLOGICAL PEPTIDE) [compound 12] | 61%
5 | 75 (RIEPA; IMMUNOLOGICAL PEPTIDE) [compound 75] | 79%
6 | 28 (RIIPA-NH2) [compound 28] | 20%
7 | 25 (RHVPA-NH2) [compound 25] | 38%
8 | 23 (RIVPS-NH2) [compound 23] | 62%
9 | 52 (PSVPGS-NH2) [compound 52] | 74%
10 | 26 (RIPVA-NH2) [compound 26] | −4%
11 | 84 ([Orn]-Val-Pro-NH2; N-terminus assumed; SMILES CC(C)[C@H](NC(=O)[C@@H](N)CCCN)C(=O)N1CCC[C@H]1C(N)=O) [compound 84] | 79%
12 | 47 (KPRAVP; IMMUNOLOGICAL PEPTIDE) [compound 47] | 52%
13 | 70 (RIHPA-NH2) [compound 70] | 37%
14 | 74 (CPVIRH-NH2) [compound 74] | 45%
15 | 89 (Lys-His-Pro-NH2) [compound 89] | 72%
16 | 21 (RGVPA-NH2) [compound 21] | 64%
17 | 72 (RIVPW-NH2) [compound 72] | 71%
18 | 87 (Arg-Arg-Pro-NH2) [compound 87] | 72%
19 | 17 (RIVPP-NH2) [compound 17] | 82%
20 | 37 (RLVPA-NH2) [compound 37] | 39%
21 | 86 (Lys-Val-Pro-NH2) [compound 86] | 49%
22 | 71 (RIWPA-NH2) [compound 71] | 78%

Row | Substance | % DPPIV Activity (Saline)
23 | 27 (RVIPA-NH2) [compound 27] | 67%
24 | 53 (GLKHPS-NH2) [compound 53] | 68%
25 | 77 (RIVPH-NH2) [compound 77] | 53%
26 | 16 (RIPPA-NH2) [compound 16] | 66%
27 | 45 (KPARVPS; IMMUNOLOGICAL PEPTIDE) [compound 45] | 27%
28 | 29 (AVPIR-NH2) [compound 29] | 0%
29 | 78 (RSVPA-NH2) [compound 78] | 75%
30 | 51 (Arg-Val-Pro-NH2) [compound 51] | 70%
31 | 5 (RIVPA; IMMUNOLOGICAL PEPTIDE) [compound 5] | 66%
32 | 82 (KPRP-NH2) [compound 82] | 52%
33 | 1 (KSRIVP; IMMUNOLOGICAL PEPTIDE) [compound 1] | 76%
34 | 83 (Arg-Ile-Pro-NH2) [compound 83] | 47%
35 | 54 (RIVPAIPVSLL-NH2) [compound 54] | 4%
36 | 30 (APVIR-NH2) [compound 30] | 36%
37 | 11 (RAVPA; IMMUNOLOGICAL PEPTIDE) [compound 11] | 39%
38 | 13 (RKVPA-NH2) [compound 13] | 50%
39 | 6 (KIVPA; IMMUNOLOGICAL PEPTIDE) [compound 6] | 64%
40 | 19 (GGIVPA-NH2) [compound 19] | 70%
41 | 15 (RPVPA-NH2) [compound 15] | 27%
42 | 85 (Ser-Val-Pro-NH2) [compound 85] | 71%
43 | 3 (SRIVPA; IMMUNOLOGICAL PEPTIDE) [compound 3] | 60%
44 | 65 (RIGPA-NH2) [compound 65] | 77%

Row | Substance | % DPPIV Activity (Saline)
45 | 9 (RIPA; IMMUNOLOGICAL PEPTIDE) [compound 9] | 51%
46 | 4 (SRIVP; IMMUNOLOGICAL PEPTIDE) [compound 4] | 64%
47 | 22 (RIVPG-NH2) [compound 22] | 61%
48 | 49 (IRVP-NH2) [compound 49] | 56%
49 | 38 (HIVPA-NH2) [compound 38] | 47%
50 | 81 (KVVPS-NH2) [compound 81] | 57%
51 | 24 (RIVPL-NH2) [compound 24] | 74%
52 | 20 (GIVPA-NH2) [compound 20] | 73%
53 | 43 (SIVPA-NH2) [compound 43] | 80%
54 | 61 (RIVPAC-NH2) [compound 61] | 52%
55 | 73 (SPVIRH-NH2) [compound 73] | 66%
56 | 50 (RVPS-NH2) [compound 50] | 59%
57 | 62 ([code r][code r]VP-NH2) [compound 62] | 51%
58 | 35 (RIVPF-NH2) [compound 35] | 77%
59 | 40 (ARVPA-NH2) [compound 40] | 68%
60 | 14 (RIVPK-NH2) [compound 14] | 67%
61 | 41 (IRVPA-NH2) [compound 41] | 49%
62 | 46 (RVPSLL-NH2) [compound 46] | 70%
63 | 18 (RIVPGGA-NH2) [compound 18] | 65%
64 | 76 (RIVPE-NH2) [compound 76] | 69%
65 | 8 (RVPA; IMMUNOLOGICAL PEPTIDE) [compound 8] | 64%
66 | 88 (Gly-Val-Pro-NH2) [compound 88] | 69%

system: S. aureus 25923; assay: Non-antimicrobial activity, WST-1 colorimetric bacterial viability assay; type: cell-based; settings: peptide 200 μM, 2 hours growth, compared with erythromycin 120 μg/ml
Protocol: Bacteria (S. aureus 25923) were seeded into wells containing peptide (200 μM), vehicle (Tris), or antibiotic (erythromycin; 120 μg/ml). The bacteria were allowed to grow for 2 hours. Thereafter, bacterial viability was determined utilizing a WST-1 colorimetric viability assay (catalogue number 1 644 807; Roche Diagnostics). DMEM and DMEM+WST-1 were included as background controls.

Row | Substance | antimicrobial activity (bacterial viability)
67 | 47 (KPRAVP; IMMUNOLOGICAL PEPTIDE) [compound 47] | lack of activity; also recorded: lacked antimicrobial activity
68 | 5 (RIVPA; IMMUNOLOGICAL PEPTIDE) [compound 5] | lack of activity; also recorded: lacked antimicrobial activity
69 | 1 (KSRIVP; IMMUNOLOGICAL PEPTIDE) [compound 1] | lacked antimicrobial activity

system: S. aureus 25923; assay: In vivo protection, mice infected IP with S. aureus, peptide after infection; settings: peptide IP 4 hours after infection, 9-24 mg/kg depending on peptide, 24 hours post-infection, vs control
Protocol: Mice were infected with S. aureus 25923 via intraperitoneal (IP) injection. Four hours later, the peptide of SEQ ID NOs:1, 4, 5, 6, 45, and 47 were administered at 12 mg/kg and 24 mg/kg for SEQ. ID. NO. 1 (FIGS. 2A and 2B), 9.6 mg/kg for SEQ. ID. NO. 5 (FIG. 2C), 13 mg/kg for SEQ. ID. NO. 47 (FIG. 2D), 12 mg/kg for SEQ. ID. NO. 4 (FIG. 2E), 9 mg/kg for SEQ. ID. NO. 6 (FIG. 2F), and 13 mg/kg for SEQ. ID. NO. 45 (FIG. 2G), via IP injection. Twenty-four hours post-infection, surviving animals were sacrificed, and intraperitoneal lavage fluid was plated to determine residual bacterial counts (# colony forming units per ml (CFU/ml)) in the presence and absence of peptide treatment.
Dead animals were assigned the highest bacterial count of any animal in the study.

Row | Substance | protection (residual bacterial counts CFU/ml in intraperitoneal lavage fluid)
70 | 47 (KPRAVP; IMMUNOLOGICAL PEPTIDE) [compound 47] | clearly demonstrated protection
71 | 45 (KPARVPS; IMMUNOLOGICAL PEPTIDE) [compound 45] | clearly demonstrated protection
72 | 5 (RIVPA; IMMUNOLOGICAL PEPTIDE) [compound 5] | clearly demonstrated protection
73 | 1 (KSRIVP; IMMUNOLOGICAL PEPTIDE) [compound 1] | clearly demonstrated protection
74 | 6 (KIVPA; IMMUNOLOGICAL PEPTIDE) [compound 6] | clearly demonstrated protection
75 | 4 (SRIVP; IMMUNOLOGICAL PEPTIDE) [compound 4] | clearly demonstrated protection

system: S. aureus 25923; assay: Prophylactic in vivo protection, peptide before IP S. aureus infection of mice; settings: mice; peptide IP 24 hours prior to infection, 12 mg/kg (SEQ 1), 11.5 mg/kg (SEQ 5); 24 hours post-infection
Protocol: Twenty-four hours prior to infection, peptide was administered at 12 mg/kg (SEQ. ID. NO. 1, FIG. 3A) and 11.5 mg/kg (SEQ. ID. No. 5, FIG. 3B), via IP injection. Mice were then infected with S. aureus 25923 via IP injection. Twenty-four hours post-infection, surviving animals were sacrificed and intraperitoneal lavage fluid was plated to determine residual bacterial counts (# colony forming units per ml (CFU/ml)) in the presence and absence of peptide treatment.
Dead animals were assigned the highest bacterial count of any animal in the study. The peptides of SEQ. ID.

Row | Substance | protection (residual bacterial counts CFU/ml in intraperitoneal lavage fluid)
76 | 5 (RIVPA; IMMUNOLOGICAL PEPTIDE) [compound 5] | clearly demonstrated protection
77 | 1 (KSRIVP; IMMUNOLOGICAL PEPTIDE) [compound 1] | clearly demonstrated protection

same assay, conditions: prophylactic peptide IP; control 2 mice dead

Row | Substance | mouse dead (peptide treatment)
78 | 5 (RIVPA; IMMUNOLOGICAL PEPTIDE) [compound 5] | 0
79 | 1 (KSRIVP; IMMUNOLOGICAL PEPTIDE) [compound 1] | 0
